Values quoted from earlier work, collected in paper PMC5830908.
Like-named read-outs stand apart in the source and are kept apart here.

Experiments:
K-Ras (Homo sapiens) [1] = target: K-Ras (Homo sapiens) (UniProt P01116)
K-Ras (Homo sapiens) [2] = target: K-Ras (Homo sapiens) (UniProt P01116); remark: listed apart in the source

- Kd (K-Ras (Homo sapiens) [1]): 51 nM
- Kd (K-Ras (Homo sapiens) [2]): 700 nM
Substance: KRpep-2
